We go through 13 molecules from patent US20130052176, “APTAMER FOR NGF AND USE THEREOF” (SHIONOGI & CO., LTD, published 2013).

Series [1] concerns the target T1, NGF (nerve growth factor) (human, UniProt P01138 P01138:122-241). Put plainly: cell_activity; neurite outgrowth, NGF 1.1 nM; SPR binding; TF-1 IC50 6.3 nM. To be noted: tags: amine-coupled to CM5 chip in SPR; soluble in cell assays; chain copies: 2. How it is done:
(§1) The neurite outgrowth inhibitory activity of the aptamer obtained in Example 1 was evaluated by using Neuroscreen-1 cell, which is a subclone of PC-12 cells.
(§2) The cells (2500 cells per well) were cultured for one day in an RPMI-1640 medium containing 2.5% horse serum and 1.25% fetal bovine serum in a 96 well flat-bottom plate coated with collagen type IV. […] Two days later, the cytoplasm and nuclei were stained using Cellomics Neurite Outgrowth Kit (manufactured by Thermo Scientific), and neurite length per cell was measured by Cellomics ArrayScan VTI (manufactured by Thermo Scientific). With the neurite length per cell obtained by the addition of NGF alone as inhibitory activity 0%, and that of the cell obtained by NGF free culture for 2 days as inhibitory activity 100%, the inhibitory activity of the aptamer was calculated from the neurite length per cell obtained by culturing with the addition of NGF and the aptamer in mixture. When the inhibitory activity was 0% or below, ‘0%’ is indicated.
(In general: In SPR one partner is held on a chip, and binding of the other changes the refractive index at the surface.)

Series [2] concerns the target T1, NGF (nerve growth factor). Put plainly: cell_activity; neurite outgrowth, NGF 1.1 nM; SPR binding; blocks NGF-TrkA and NGF-p75; TF-1 IC50 2.1 nM. Conditions: tags: amine-coupled to CM5 chip in SPR; soluble in cell assays; chain copies: 2. How it is done: as §1, §2
For series [3], the target named is T1, NGF (nerve growth factor). Description: cell_activity; neurite outgrowth, NGF 0.38 nM; SPR binding; blocks NGF-TrkA and NGF-p75; TF-1 IC50 0.07 nM. Conditions: tags: amine-coupled to CM5 chip in SPR; soluble in cell assays; chain copies: 2.
Series [4] deals with T2, NT-3 (human, UniProt P20783 P20783:139-257).
T2 sequence: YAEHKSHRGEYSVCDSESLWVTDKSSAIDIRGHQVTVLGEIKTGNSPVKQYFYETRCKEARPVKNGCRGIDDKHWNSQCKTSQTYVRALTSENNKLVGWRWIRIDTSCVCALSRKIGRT
Description: SPR; binding to NT-3 not observed; TF-1 IC50 >1000 nM. Conditions: tags: R&D Systems; chain copies: 2.

Series [5] addresses T1, NGF (nerve growth factor). Put plainly: cell_activity; neurite outgrowth, NGF 1.1 nM; SPR binding; TF-1 IC50 2.4 nM. To be noted: tags: amine-coupled to CM5 chip in SPR; soluble in cell assays; chain copies: 2. The protocol:
as §1, §2

Series [6] deals with T1, NGF (nerve growth factor). Description: cell_activity; neurite outgrowth, NGF 0.38 nM; SPR binding; TF-1 IC50 0.09 nM. To be noted: tags: amine-coupled to CM5 chip in SPR; soluble in cell assays; chain copies: 2. The protocol: as §1, §2
Series [7] concerns the target T1, NGF (nerve growth factor). Description: cell_activity; neurite outgrowth, NGF 1.1 nM; SPR binding; TF-1 IC50 3.4 nM. To be noted: tags: amine-coupled to CM5 chip in SPR; soluble in cell assays; chain copies: 2.
In series [8] the target is T1, NGF (nerve growth factor). Description: cell_activity; neurite outgrowth, NGF 0.38 nM; SPR binding; TF-1 IC50 0.1 nM. Conditions: tags: amine-coupled to CM5 chip in SPR; soluble in cell assays; chain copies: 2.
The target in series [9] is T1, NGF (nerve growth factor). Description: cell_activity; neurite outgrowth, NGF 0.38 nM; SPR binding; TF-1 IC50 0.128 nM. Conditions: tags: amine-coupled to CM5 chip in SPR; soluble in cell assays; chain copies: 2. How it is done: as §1, §2
Series [10] has as its target T1, NGF (nerve growth factor). Put plainly: cell_activity; neurite outgrowth, NGF 0.38 nM; SPR binding; TF-1 IC50 0.105 nM. Conditions: tags: amine-coupled to CM5 chip in SPR; soluble in cell assays; chain copies: 2. How it is done: as §1, §2
The target of series [11] is T1, NGF (nerve growth factor). Put plainly: cell_activity; neurite outgrowth, NGF 0.38 nM; SPR binding; TF-1 IC50 0.186 nM. To be noted: tags: amine-coupled to CM5 chip in SPR; soluble in cell assays; chain copies: 2. How it is done: as §1, §2
Series [12] concerns the target T1, NGF (nerve growth factor). Put plainly: cell_activity; neurite outgrowth, NGF 0.38 nM; SPR binding; TF-1 IC50 0.062 nM. To be noted: tags: amine-coupled to CM5 chip in SPR; soluble in cell assays; chain copies: 2. The protocol: as §1, §2
Series [13] concerns the target T1, NGF (nerve growth factor). Description: cell_activity; neurite outgrowth, NGF 1.1 nM; SPR binding; TF-1 IC50 6.8 nM. Conditions: tags: amine-coupled to CM5 chip in SPR; soluble in cell assays; chain copies: 2. How it is done: as §1, §2
For series [14], the target named is T1, NGF (nerve growth factor). Put plainly: cell_activity; neurite outgrowth, NGF 0.38 nM; SPR binding; TF-1 IC50 0.211 nM. Conditions: tags: amine-coupled to CM5 chip in SPR; soluble in cell assays; chain copies: 2. The protocol:
as §1, §2

T1 sequence (P01138 122-241, one chain of several): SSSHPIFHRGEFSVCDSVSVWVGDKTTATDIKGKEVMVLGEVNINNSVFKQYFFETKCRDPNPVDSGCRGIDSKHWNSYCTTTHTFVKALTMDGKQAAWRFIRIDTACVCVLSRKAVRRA

B1: aptamer ID 62 (mixed)
mixed: GGGAUAAAAAUAGAGTUUGATAAACACCUGUAUUAAAACCC
modifications: 5' cholesterol; 3' idT; 2'-F pyrimidines (except dT at 16,21) and a37; 2'-OMe other purines except 2'-OH at 4,7,30,38
A word on the IC50: it is the concentration that inhibits the measured activity by half. For B1, in series [1], the IC50 was 4600 pM.

B2: aptamer ID 63 (mixed)
mixed: GGGAUAAAAAUAGAGTUUGATAAACACCUGUAUUAAAACCC
modifications: 5' cholesterol; 3' idT; 2'-F pyrimidines (except dT at 16,21); 2'-OMe other purines except 2'-OH at 4,7,30,37,38
B2: the IC50 in [2] is under 3000 pM.

B3: aptamer ID 26(2) (ssRNA)
RNA: GGGAGACUCGCCAGAGUUGAAAGAAACCCAAAUAAGUGUGCGCAC
modifications: 2'-F pyrimidines; 2'-OMe purines except 2'-OH at 3,5,19-22,24,26; 5' idT and 3' idT
On to B3, for which the IC50 in series [3] turned out to be 60 pM. Further, the binding result in series [4] is reported as “no binding”.

B4: aptamer ID 26(7) (ssRNA)
RNA: GGGAGACUCGCCAGAGUUGAAAGAAACCCAAAUAAGUGUGCGCAC
modifications: 2'-F pyrimidines; 2'-OMe at 21; other purines 2'-OH
In series [5], B4 yielded an IC50 of under 1000 pM.

B5: aptamer ID 26(14) (ssRNA)
RNA: GGGAGACUCGCCAGAGUUGAAAGAAACCCAAAUAAGUGUGCGCAC
modifications: 2'-F pyrimidines; 2'-OMe purines except 2'-OH at 3,5,19-21,24,26; 5' idT and 3' idT
Consider B5, for which the IC50 in [6] worked out at 82 pM.

B6: aptamer ID 26(5) (ssRNA)
RNA: GGGAGACUCGCCAGAGUUGAAAGAAACCCAAAUAAGUGUGCGCAC
modifications: 2'-F pyrimidines; 2'-OMe at 30-32,34,35; other purines 2'-OH
In turn, B6 showed an IC50 in series [7] of under 1000 pM.

B7: aptamer ID 26(1) (ssRNA)
RNA: GGGAGACUCGCCAGAGUUGAAAGAAACCCAAAUAAGUGUGCGCAC
modifications: 2'-F pyrimidines; 2'-OMe purines except 2'-OH at 3,5,19-23,25; 5' idT and 3' idT
B7 came in with an IC50 in [8] of 60 pM.

B8: aptamer ID 26(43) (mixed)
RNA: GGGAGACUCGCCAGAGUUGAAAGAAACCCAAAUAAGUGUGCGCAC
modifications: 2'-F pyrimidines except dC at 7,9,11,12,29,45 and dT at 8,17,33,37; 2'-OMe purines except 2'-OH at 3,19,20,26; 5' idT and 3' idT
In series [9], B8 gave an IC50 of 73 pM.

B9: aptamer ID 26(18) (ssRNA)
RNA: GGGAGACUCGCCAGAGUUGAAAGAAACCCAAAUAAGUGUGCGCAC
modifications: 2'-F pyrimidines; 2'-OMe purines except 2'-OH at 3,19,20; 5' idT and 3' idT
In the case of B9, the IC50 in series [10] was 84 pM.

B10: aptamer ID 26(22) (mixed)
RNA: GGGAGACUCGCCAGAGUUGAAAGAAACCCAAAUAAGUGUGCGCAC
modifications: 2'-F pyrimidines except dT at 8; 2'-OMe purines except 2'-OH at 3,19,20,26; 5' idT and 3' idT
B10 registered an IC50 in series [11] of 293 pM.

B11: aptamer ID 26(49) (ssRNA)
RNA: GGGAGACUCGCCAGAGUUGAAAGAAACCCAAAUAAGUGUGCGCAC
modifications: 2'-F pyrimidines except 2'-OMe at 7,8,9,11,12,17,18,33,37,45; 2'-OMe purines except 2'-OH at 3,19,20,26; 5' idT and 3' idT
Take B11: in series [12], the IC50 came out at 59 pM.

B12: aptamer ID 26(4) (ssRNA)
RNA: GGGAGACUCGCCAGAGUUGAAAGAAACCCAAAUAAGUGUGCGCAC
modifications: 2'-F pyrimidines; 2'-OMe at 1,2,4,5,23-26; other purines 2'-OH
For B12, in [13], the IC50 was under 1000 pM.

B13: aptamer ID 26(31) (ssRNA)
RNA: GGGAGACUCGCCAGAGUUGAAAGAAACCCAAAUAAGUGUGCGCAC
modifications: 2'-F pyrimidines except 2'-OMe at 7; 2'-OMe purines except 2'-OH at 3,19,20,26; 5' idT and 3' idT
In turn, B13 yielded an IC50 in [14] of 300 pM.
